Key:
[1] = biological target: T1, human CCR8 (human, UniProt P51685 1-355); assay: cell-based or functional assay
[2] = biological target: T1, human CCR8; assay: FACS on 293F-CCR8 cells
Method: The affinity of anti-CCR8 antibodies was evaluated by FACS. […] Affinity analyses were generally carried out as follows. […] The test antibodies were diluted with PBS/0.5 BSA (1:3 series dilution from 225 μg/mL to 0.00381 μg/mL). The transfected cells along with parent non-transfected cells were distributed into 96-well round-bottom polystyrene plates and incubated with the diluted antibodies on ice for 20-30 minutes. Next, the samples were washed with PBS/0.5 BSA and the cells were centrifuged. The pelleted cell samples were incubated with the second antibody of anti-mouse IgG-FITC-at 1:300 dilution in 100 μL PBS/0.5% BSA on ice for 30 minutes, and then washed with PBS/0.5% BSA, followed by pelleting the cells. The cell pellets were re-suspended in PBS/0.5% BSA for reading, and samples were analyzed using CYTOFLEX (Beckman).

[3] = biological target: T1, human CCR8; assay: FACS on human CCR8-expressing 293F cells

T1 sequence (P51685 whole entry): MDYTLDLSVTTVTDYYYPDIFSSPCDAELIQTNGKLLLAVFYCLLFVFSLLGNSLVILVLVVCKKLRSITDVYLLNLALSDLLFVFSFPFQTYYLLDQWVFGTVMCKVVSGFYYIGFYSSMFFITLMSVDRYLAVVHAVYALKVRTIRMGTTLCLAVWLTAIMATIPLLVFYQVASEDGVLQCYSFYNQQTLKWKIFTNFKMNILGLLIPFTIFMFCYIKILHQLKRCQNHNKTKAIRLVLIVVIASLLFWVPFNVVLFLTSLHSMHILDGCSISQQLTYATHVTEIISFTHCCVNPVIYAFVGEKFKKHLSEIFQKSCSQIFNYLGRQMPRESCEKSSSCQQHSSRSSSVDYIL

| Tango IC50 [1] | EC50 [2] | EC50 [3] | Binder |
| --- | --- | --- | --- |
| 1.82 nM | 2.94 nM | – | 1G17 (antibody, V domains shown, Mouse hybridoma monoclonal antibody) VH: QVQLQQSGAELVRPGASVTLSCKASGYTFADYEMHWVKQTPVLGLEWIGAIDPETGRTAYNQKFKFKATLTADRSSSTAYMELRSLTSEDSAVYYCTRRAYWGGWGQGTTLTVSS VL: DVVMTQTPLSLPVSLGDQASISCRSSQSLVHSSGNTYLHWYLQKPGQSPKLLIYKVSNRFSGVPDRFSGSGSGTDFTLKISRVEAEDLGVYFCSQSTHVPYTFGGGTKLEIK |
| 1.87 nM | 0.305 nM | – | 2P15 (antibody, V domains shown, Mouse hybridoma monoclonal antibody) VH: EVQLVESGGGLVQPKGSLKLSCAASGFSFNAYAMNWVRQAPGKGLEWVARMRSKSNYYATYYADSVKDRFTISRDDSESMLYLQMNNLKTEDTAMYYCVRQTYGSKDYAMDYWGQGTSVTVSS VL: DVVMTQTPLSLPVSLGDQASISCRSSQSLVHSNGNTYFHWYLQKPGQSPKLLIYKVSNRFSGVPDRFSGSGSGTDFTLKISRVEAEDLGVYFCSQSTHVPFTFGSGTKLEIK |
| – | – | 98.5 nM | 3F11hz2 (antibody, V domains shown, Humanized variant of 3F11) VH: EVQLVESGGGLVQPGGSLKLSCAASGFSFNTYAMNWVRQASGKGLEWVGRIRSKSNYYATYYAASVKGRFTISRDDSKNTAYLQMNSLKTEDTAVYYCVRGRELGDYYAMDYWGQGTLVTVSS VL: DIVMTQSPLSLPVTPGEPASISCRSSKSLLHSNGNTYLDWFLQKPGQSPQLLIYRMSNRASGVPDRFSGSGSGTDFTLKISRVEAEDVGVYYCMQHLEYPFTFGQGTKLEIK |
| – | – | 508 nM | 3O20hz1 (antibody, V domains shown, Humanized variant of 3O20) VH: EVQLVESGGGLVQPGGSLKLSCAASGFSFNAYAMHWVRQASGKGLEWVGRIRSKSNNYATAYAASVKGRFTISRDDSKNTAYLQMNSLKTEDTAVYYCVRGGYHGNSAYFDVWGQGTLVTVSS VL: DIVMTQSPLSLPVTPGEPASISCRSSKSLLHSNGNTYLDWYLQKPGQSPQLLIYRMSNRASGVPDRFSGSGSGTDFTLKISRVEAEDVGVYYCLQHLEYPFTFGQGTKLEIK |
| 0.83 nM | 20.6 nM | – | 103G4 (antibody, V domains shown, Mouse hybridoma monoclonal antibody) VH: EVQLVESGGGLVRPKGSLKLSCAASGFSFNPYALNWVRQAPGKGLEWVARIRSKSNNYATYYADSVKDRFTISRDDSENILYLQMNNLKTEDTAMYYCVKDYYGTRPSIGMDYWGQGTSVTVSS VL: DIVMTQAAPSVPVTPGESVSISCRSSRSLLHSNGNTYLYWFLQRPGQSPHLLIYRMSNLASGVPDRFSGSGSGTAFTLRISRVEAEDVGVYYCMQHLEYPFTFGAGTKLELK |
| 1.23 nM | 0.826 nM | – | 2L15 (antibody, V domains shown, Mouse hybridoma monoclonal antibody) VH: EVQLVESGGGLVQPKGSLKLSCAASGFSFNTYAMNWVRQAPGKGLEWVARIRSKSNNYATYYADSVKDRFTISRADSESMLYLQMNNLKTEDTAMYYCVRGKDISVSYAMDYWGQGTSVTVSS VL: DIVMTQAAPSVPVTPGESVSISCRSSKSLQHSNGNTYLYWFLQRPGQSPQLLIYRMSNLASGVPDRFSGSGSGTAFTLRISRVETEDVGVYYCMQHLEYPFTFGSGTKLEIK |
| 2.61 nM | 4.49 nM | – | 4G19 (antibody, V domains shown, Mouse hybridoma monoclonal antibody) VH: EVQFVESGGGLVQPKGSLKLSCAASGFSFNTYAMNWVRQAPGKGLEWVARIRTKSNNYATHYADSVTDRFIVSRDDSESMTYLQMNNLKTEDTGMYYCVRGGNGIYGRNTMDNWGQGTSVTVSS VL: DIVMTQTAPSVPVSPGESVSISCRSSKSLLHSSGNTYLYWFLQRPGQSPQLLIYRMSNLASGVPDRFSGSGSGTAFTLRISRVEAEDVGVYYCMQHLEYPFTFGGGTKLEIQ |
| – | – | 333 nM | 1G17hz2 (antibody, V domains shown, Humanized variant of 1G17) VH: QVQLVQSGAEVKKPGASVKVSCKASGYTFADYEMHWVRQAPGQGLEWIGIIDPETGRTSYAQKFQGRATLTADRSTSTAYMELSSLRSEDTAVYYCTRRAYWGGWGQGTLVTVSS VL: DVVMTQSPLSLPVTLGQPASISCRSSQSLVHSSGNTYLNWYQQRPGQSPRLLIYKVSNRDSGVPDRFSGSGSGTDFTLKISRVEAEDVGVYFCSQSTHVPYTFGQGTKLEIK |

Further lines, the binder ahead of its results:

| Binder | Tango IC50 [1] | EC50 [2] | EC50 [3] |
| --- | --- | --- | --- |
| 4D24 (antibody, V domains shown, Mouse hybridoma monoclonal antibody) VH: EVQLVESGGGLVQPKGSLKLSCAASGFSFNPYAMNWVRQSPGKGLEWVARIRSKSNNYATYYADSVKDRFTISRDDSESMLYLQMNNLKTEDTAMYYCVRQGWVKRYFDVWGTGTTVTVSS VL: GNVLTQSPAIMSASPGEKVTMTCSASSSGTYMHWYQQKSTTSPKLWIYDTSKLASGVPGRFSGSGSGNSYSLTISSMEAEDIATYYCFQGSGYPLTFGSGTKLEIK | 0.67 nM | 0.888 nM | – |
| 3C11 (antibody, V domains shown, Mouse hybridoma monoclonal antibody) VH: EFQLQQSGPELVKPGASVKISCKTSGYSFTDYNINWVKQSNGKSLEWIGLINPNHGTTKSNQKFKGKATLTVDQSSSTAYMQLSSLTSEDSAVYYCARHDYDGAYWGQGTLVTVSA VL: DVVMTQTPLSLPVSLGDQASISCRSSQSLIHSNGNTYLHWYLQKPGQSPKLLIYKISNRFSGVPDRFSGSGSGTDFTLKISRVEAEDLGVYFCSQSTRAPWTFGGGTKLEIK | 4.08 nM | 4.25 nM | – |
| 84B4 (antibody, V domains shown, Mouse hybridoma monoclonal antibody) VH: EVQLQQSGPVLVKPGASVKMSCKASGFTITDYYFNWVKQSHGKSLEWIGIINPYNGVARYKQKFKGKATLTVDKSSSTVYLEFSGLTSEDSAVYYCVRFVYGTTYDYAMDYWGQGTSVTVSS VL: DVLMTQTPLSLPVSLGDQASISCRSSQSIVHSNGNTYLEWYVQKPGQSPKLLIYKVSNRFSGVPDRFSGSGSGTDFTLKISRVEAEDLGVYYCFQGSHVPPTFGGGTKLEIK | 1.86 nM | 0.195 nM | – |
| 3O20hz3 (antibody, V domains shown, Humanized variant of 3O20) VH: EVQLVESGGGLVQPGGSLKLSCATSGFSFNAYAMHWVRQASGKGLEWVGRIRSKSNNYATAYAASVKGRFTISRDDSKTTLYLQMNSLKTEDTAVYYCVRGGYHGNSAYFDVWGQGTLVTVSS VL: DIVMTQSPLSLPVTPGEPASISCRSSKSLLHSQGNTYLDWFLQKPGQSPQLLIYRMSNRASGVPDRFSGSGSGTDFTLKISRVEAEDVGVYYCLQHLEYPFTFGQGTKLEIK | – | – | 241 nM |
| 101E4 (antibody, V domains shown, Mouse hybridoma monoclonal antibody (SJL mice); detected with anti-mouse IgG) VH: EVQLVESGGGLVQPKGSLKLSCAASGFSFNPYAMNWVRQGPGKGLEWVARIRSKSNNYATYYADSVKDRFTISRDDSENILYLQMNNLKTEDTAMYYCVRDYYGGRSSIGMDYWGHGTSVTVSS VL: DIVMTQAAPSVPVTPGESVSISCRSSKSLLHSNGNTYLYWFLQRPGQSPQLLIYRMSNLASGVPDRFSGSGSGTAFTLRISRVEAEDVGVYYCLQHLEYPFTFGGGTKLELK | 0.27 nM | 0.409 nM | – |
| 118H1 (antibody, V domains shown, Mouse hybridoma monoclonal antibody; also called 1181H1) VH: EVQLVESGGGLVQPKGSLKLSCAASGFSFNPYAMNWVRQAPGKGLEWIARIRSKSNNYAAYYADSVKDRFTISRDDSENILYLQMKNLITEDTAMYYCVRDYYGTRPSIGMDYWGRGTSVTVSS VL: DIAMTQAAPSVFVTPGESVSISCRSSQSLLHSNGNTYLYWFLQRPGRSPQLLIYRMSNLASGVPDRFSGSGSGTGFTLRISRVEAEDVGVYYCMQHLEYPFTFGAGTKLELK | 1.43 nM | 0.466 nM | – |
| 3F6 (antibody, V domains shown, Mouse hybridoma monoclonal antibody) VH: EVQFVESGGGLVQPKGSLKLSCAASGFSFNTYAMNWVRQAPGKGLEWVARIRTKSNNYATHYADSVKDRFIVSRDDSENILYLQMNNLKTEDTGMYYCVRGGNGIYGRNAMDNWGQGTSVTVSS VL: DIVMTQAAPSVPVSPGESVSISCRSSKSLLHSSGNTYLYWFLQRPGQSPQLLIYRMSNLASGVPDRFSGSGSGTAFTLRISRVEAEDVGVYYCMQHLEYPFTFGGGTKLEIK | 0.51 nM | 2.29 nM | – |
| 3O20 (antibody, V domains shown, Mouse hybridoma monoclonal antibody) VH: EVQLVESGGGLVQPKGSLKLSCATSGFSFNAYAMNWVRQAPGKGLEWVGRIRSKSNNYATYYADSVKGRFTISRDDSKTILYLQMNTLKTEDTAIYYCVRGGYHGNSAYFDVWGTGTSVTVSS VL: DIVMTQAAPSVPVTPGESVSISCRSSKSLLHSNGNTYLYWFLQRPGQSPQLLIYRMSNLASGVPDRFSGSGSGTAFTLRISRVEAEDVGVYYCLQHLEYPFTFGSGTKLEIK | 0.45 nM | 1.29 nM | – |
| 3F11 (antibody, V domains shown, Mouse hybridoma monoclonal antibody) VH: EVQLVESGGGLVQPKGSLKLSCAASGFSFNTYAMNWVRQAPGKGLEWVARIRSKSNYYATYYADSVKDRFTISRDDSESMLYLQMNNLKTEDTAMYYCVRGRELGDYYAMDYWGQGTSVTVSS VL: DIVMTQAAPSVPVTPGESVSISCRSSKSLLHSNGNTYLYWFLQRPGQSPQLLIYRMSNLASGVPNRFSGSGSGTAFTLRISRVEAEDVGVYYCMQHLEYPFTFGSGTKLEIK | 0.27 nM | 0.957 nM | – |
| 4M13 (antibody, V domains shown, Mouse hybridoma monoclonal antibody) VH: EVQLVESGGGLVQPKGSLKLSCAASGFSFNTYAMNWVRQAPGKGLEWVARMRSKSNNYATYYADSVKDRFTISRDDSESMLYLQMNNLKTEDTAMYYCVRGKDTSGSYAMDYWGQGTSVSVSS VL: DIVMTQAAPSVPVTPGESVSISCRSSKSLLHSNGNTYLYWFLQRPGQSPHLLIYRMSNLASGVPDRFSGSGSGTAFTLRISKVETEDVGVYYCMQHLEYPFTFGSGTKLEIK | 0.47 nM | 0.775 nM | – |
| 172E7 (antibody, V domains shown, Mouse hybridoma monoclonal antibody) VH: EVQLQQSGPVLVKPGASVKMSCKASGYTFTDNYMNWMKQSHGKTLEWIGVINPYNGVTRYNQKFRDKATLTVDKSSSTAYMDLNSLTSEDSAVYYCSNSLSWGPGTSLTVSS VL: not shown | 2.01 nM | 6.99 nM | – |
| 170G6 (antibody, V domains shown, Mouse hybridoma monoclonal antibody) VH: EVQLQQSGPVLVKPGASVKMSCKASGYTFTDNYMNWVKQSHGKSLEWIGVINPYNGVTRYNQKFRGKATLTADKSSSTAFMDLNSLTSEDSAVYYCSNSLSWGPGTTLTVSS VL: not shown | 0.33 nM | 0.302 nM | – |
